Experimental data published in PMC6033619 (ACS chemical neuroscience, 2018).
*: point of attachment. Cbz = O=C(OCc1ccccc1)*; Boc = CC(C)(C)OC(=O)*

What was measured:
[1] = molecular target: T1, FGF14^V160A (aa 64-252) (human) (UniProt Q92915); assay: SPR
T1 sequence: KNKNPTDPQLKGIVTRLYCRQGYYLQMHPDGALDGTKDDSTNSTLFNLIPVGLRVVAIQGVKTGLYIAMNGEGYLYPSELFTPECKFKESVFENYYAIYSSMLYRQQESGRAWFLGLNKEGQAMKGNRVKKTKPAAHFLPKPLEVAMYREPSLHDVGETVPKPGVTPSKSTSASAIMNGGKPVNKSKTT

[2] = molecular target: T2, FGF14^WT (aa 64-252) (human) (UniProt Q92915); assay: SPR
T2 sequence: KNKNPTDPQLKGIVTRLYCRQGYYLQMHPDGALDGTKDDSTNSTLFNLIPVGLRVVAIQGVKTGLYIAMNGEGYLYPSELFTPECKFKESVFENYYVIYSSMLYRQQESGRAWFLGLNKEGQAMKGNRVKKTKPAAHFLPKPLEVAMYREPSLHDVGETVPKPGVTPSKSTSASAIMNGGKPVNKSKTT

[3] = molecular target: CLuc-FGF14 (human) (human, UniProt Q92915 1-247); assay: split reporter

B1: ZL181 (Cbz-FLPK(Boc)-CONH2) (peptide)
peptide: Cbz-FLPK(Boc)-NH2
SMILES: CC(C)C[C@H](NC(=O)[C@H](Cc1ccccc1)NC(=O)OCc1ccccc1)C(=O)N1CCC[C@H]1C(=O)N[C@@H](CCCCNC(=O)OC(C)(C)C)C(N)=O
What does the source list for B1?
Kd [1]: 182 µM; Kd [2]: 89.6 µM; IC50 [3]: 63 µM
